Data from patent US20130196320A1, “METHOD FOR IMPROVING CLEAVAGE OF DNA BY ENDONUCLEASE SENSITIVE TO METHYLATION” (CELLECTIS, priority 2010, published 2013).
Where two headings read alike, the source gives them in different places.

Experiments:
C1221 DNA target = test: In vitro binding assay, fluorescence anisotropy of fluorescein-labeled C1221 duplex; conditions: read-out: [I-CreI]50, apparent dissociation constant
Method: FIG. 1: Spectrofluorimetric titration of fluorescein-labeled C1221 by I-CreI. 50 nM C1221, containing either 0 or 4 methylated CG on both strands, was incubated with increasing concentrations of I-CreI (from 0 to 1.5 μM) in binding buffer (10 mM Tris-HCl, 150 mM NaCl, 10 mM CaCl2, 10 mM DTT, pH8) at 25° C. After 30 minutes incubation, the fluorescence anisotropy of the mixture was recorded and then plotted as a function of I-CreI concentration.
Fluorescein labeled C1221 oligonucleotides were synthesized and HPLC-purified by Eurogentec. […] C1221 duplex and fluorescein final concentrations were assessed by spectrophotometry using their respective extinction coefficients ε260nm=62900 M^−1 cm^−1 and ε495nm=83000 M^−1 cm^−1. […]
To investigate the binding of I-CreI to C1221 duplex, 50 nM of C1221 duplex was incubated with increasing concentrations of I-CreI (from 0 to 1.5 μM) in binding buffer (10 mM Tris-HCl, 150 mM NaCl, 10 mM CaCl2, 10 mM DTT, pH8) at 25° C. After 30 minutes incubation, the fluorescence anisotropy of the mixture was recorded with a Pherastar Plus (BMG Labtech) operating in fluorescence polarization end point mode with excitation and emission wavelengths set to 495 and 520 nm respectively. […] [I-CreI]50 is defined as the concentration of 1-CreI needed to reach 50% of the final fluorescence anisotropy.

ADCY9.1 DNA target = test: In vitro single turn over cleavage assay with ADCY9.1; type: biochemical
Method: FIG. 13: In vitro cleavage of unmethylated or methylated ADCY9.1 by ADCY9. A constant amount of ADCY9.1 duplex (50 nM) was incubated with an excess of ADCY9 (1.5 μM, final concentration) in the reaction buffer (10 mM Tris-HCl, 150 mM NaCl, pH8) at 37° C. Cleavage reaction was triggered by the addition of MgCl2 and then stopped after different time lengths by the addition of the stop buffer. This was followed by one hour of incubation at 37° C. to digest ADCY9 and release free DNA molecules. Cleaved and uncleaved DNA products were separated by PAGE using a TGX Any kD precast gel (Bio-Rad), stained with SYBR Green and then quantified using Quantity One software (Bio-Rad). Disappearance of substrate (uncleaved DNA) is plotted as a function of time.
To investigate the influence of C1234 methylation on the nuclease activity of I-Cre I, in vitro single turn over cleavage assays were performed with either unmethylated or methylated C1234 duplexes (unmethylated C1234 composed of SEQ ID NO: 31+SEQ ID NO: 32, C1234_Me full composed of SEQ ID NO: 35+SEQ ID NO: 38, C1234_Me-6a/-5b composed of SEQ ID NO: 33+SEQ ID NO: 36, C1234_Me-3a/-2b composed of SEQ ID NO: 34+SEQ ID NO: 37, C1234_Me-3a composed of SEQ ID NO: 34+SEQ ID NO: 32, C1234_Me-2b composed of SEQ ID NO: 31+SEQ ID NO: 37, respectively). A constant amount of C1234 duplex (50 nM) was incubated with an excess of I-Cre I (1.5 μM, final concentration) in the reaction buffer (10 mM Tris-HCl, 150 mM NaCl, pH8) at 37° C. Cleavage reaction was triggered by the addition of MgCl2 and then stopped after different time lengths by the addition of the stop buffer (45% glycerol, 95 mM EDTA, 1.5% (w/v) SDS, 1.5 mg/mL proteinase K and 0.048% (w/v) bromophenol blue, final concentrations). This was followed by one hour incubation at 37° C. to digest I-Cre I and release free DNA molecules. Cleaved and uncleaved DNA products were separated by PAGE using a TGX Any kD precast gel (Bio-Rad), stained with SYBR Green and then quantified using Quantity One software (Bio-Rad). […]

| Molecule | Kd (C1221 DNA target; fully methylated C1221 (4 methylated CG on both strands)) [nM] | Kd (C1221 DNA target; unmethylated C1221) [nM] | kcat (ADCY9.1 DNA target; ADCY9.1_Me −3a/−2b (fully methylated)) [s⁻¹] | substrate disappearance (ADCY9.1 DNA target; fully methylated ADCY9.1, even after 5 hours) | kcat (ADCY9.1 DNA target; unmethylated ADCY9.1) [s⁻¹] |
| --- | --- | --- | --- | --- | --- |
| I-CreI: wild-type I-CreI meganuclease (… homing endonuclease), SEQ ID NO: 1, recombinant Cterm His-tag (protein, listed as Chlamydomonas reinhardtii, C-terminal His-tag) MNTKYNKEFLLYLAGFVDGDGSIIAQIKPNQSYKFKHQLSLTFQVTQKTQRRWFLDKLVDEIGVGYVRDRGSVSDYILSEIKPLHNFLTQLQPFLKLKQKQANLVLKIIEQLPSAKESPDKFLEVCTWVDQIAALNDSKTRKTTSETVRAVLDSLSEKKKSSP | ~1000 | 30 |  |  |  |
| ADCY9: engineered meganuclease (SEQ ID NO: 3) designed to cleave adenylate cyclase 9 gene (protein) MANTKYNEEFLLYLAGFVDGDGSIIAQIKPNQSYKFKHQLSLTFRVTQKTQRRWFLDKLVDEIGVGYVRDSGSVSNYDLSEIKPLHNFLTQLQPFLELKQKQANLVLKIIEQLPSAKESPDKFLEVCTWVDQVAALNDSKTRKTTSETVRAVLDSLSEKKKSSPAAGGSDKYNQALSKYNQALSKYNQALSGGGGSNKKFLLYLAGFVDSDGSIIAQIKPDQSYKFKHQLGLTFQVTQKTQRRWFLDKLVDRIGVGYVRDRGSVSDYILSEIKPLHNFLTQLQPFLKLKQKQANLVLKIIEQLPSAKESPDKFLEVCTWVDQVAALNDSKTRKTTSETVRAVLDSLSEKKKSSP |  |  | <1.7e-06 | no substrate disappearance was observed | 0.00095 ± 1.7e-05 |
